Laboratory results taken from publication PMC3049835 (Analytical biochemistry, 2011).

B1: SphK2 (Homo sapiens) (protein)
chain: MNGHLEAEEQQDQRPDQELTGSWGHGPRSTLVRAKAMAPPPPPLAASTPLLHGEFGSYPARGPRFALTLTSQALHIQRLRPKPEARPRGGLVPLAEVSGCCTLRSRSPSDSAAYFCIYTYPRGRRGARRRATRTFRADGAATYEENRAEAQRWATALTCLLRGLPLPGDGEITPDLLPRPPRLLLLVNPFGGRGLAWQWCKNHVLPMISEAGLSFNLIQTERQNHARELVQGLSLSEWDGIVTVSGDGLLHEVLNGLLDRPDWEEAVKMPVGILPCGSGNALAGAVNQHGGFEPALGLDLLLNCSLLLCRGGGHPLDLLSVTLASGSRCFSFLSVAWGFVSDVDIQSERFRALGSARFTLGTVLGLATLHTYRGRLSYLPATVEPASPTPAHSLPRAKSELTLTPDPAPPMAHSPLHRSVSDLPLPLPQPALASPGSPEPLPILSLNGGGPELAGDWGGAGDAPLSPDPLLSSPPGSPKAALHSPVSEGAPVIPPSSGLPLPTPDARVGASTCGPPDHLLPPLGTPLPPDWVTLEGDFVLMLAISPSHLGADLVAAPHARFDDGLVHLCWVRSGISRAALLRLFLAMERGSHFSLGCPQLGYAAARAFRLEPLTPRGVLTVDGEQVEYGPLQAQMHPGIGTLLTGPPGCPGREP
B2: SphK1 (Homo sapiens) (protein)
chain: MSAQVLGFLRSWTPLPLAAPRGPAAAGNDAGAPAATAPGGEGEPHSRPCDARLGSTDKELKAGAAATGSAPTAPGTPWQREPRVEVMDPAGGPRGVLPRPCRVLVLLNPRGGKGKALQLFRSHVQPLLAEAEISFTLMLTERRNHARELVRSEELGRWDALVVMSGDGLMHEVVNGLMERPDWETAIQKPLCSLPAGSGNALAASLNHYAGYEQVTNEDLLTNCTLLLCRRLLSPMNLLSLHTASGLRLFSVLSLAWGFIADVDLESEKYRRLGEMRFTLGTFLRLAALRTYRGRLAYLPVGRVGSKTPASPVVVQQGPVDAHLVPLEEPVPSHWTVVPDEDFVLVLALLHSHLGSEMFAAPMGRCAAGVMHLFYVRAGVSRAMLLRLFLAMEKGRHMEYECPYLVYVPVVAFRLEPKDGKGVFAVDGELMVSEAVQGQVHPNYFWMVSGCVEPPPSWKPQQMPPPEEPL

Assays:
SphK1 = SphK1 (Homo sapiens, UniProt Q9NYA1); settings: read-out: Km with respect to sphingosine, SphK1, previously reported; cited from earlier work
[1] = substrate: Nc1ncnc2c1ncn2[C@@H]1O[C@H](COP(=O)(O)OP(=O)(O)OP(=O)(O)O)[C@@H](O)[C@H]1O; assay: purified protein, by the assay type; settings: other: FlashPlate; 5–10 μM sphingosine, ATP 0–600 μM; 37.0 °C
[2] = substrate: CCCCCCCCCCCCC/C=C/[C@@H](O)[C@@H](N)CO; assay: 96-well FlashPlate SphK assay, SphK2; format: biochemical; settings: other: FlashPlate; ATP fixed at 250 μM, sphingosine 0–50 μM; 37.0 °C
[3] = substrate: CCCCCCCCc1ccc(CCC(N)(CO)CO)cc1; assay: 96-well FlashPlate SphK assay, SphK2; format: biochemical; settings: other: FlashPlate; FTY720 as selective SphK2 substrate; 37.0 °C

Row | Molecule | Km (SphK1) [µM] | Km [1] [µM] | Km [2] [µM] | Km [3] [µM]
1 | CCCCCCCCCCCCC/C=C/[C@@H](O)[C@@H](N)CO [sphingosine, D-erythro-sphingosine] | 5 to 17 | – | – | –
2 | B1 | – | 79 | 6 | 22
3 | B2 | – | 125 | – | –
